From patent US20180118786A1 (published 2018)
Starred links: 1 amine or outer side, 2 acyl side, 3 side chain; linkers in the order of their positions; H or OH if unused. Positions of bridges follow the written chain, without caps; N, C: chain ends. Non-standard residues stand in square brackets, D forms with d. No end group written: not given here. TATA = O=C(CC[*:1])N1CN(C(=O)CC[*:2])CN(C(=O)CC[*:3])C1; Bta = N[C@@H](Cc1csc2ccccc12)C(=O)O; βAla = NCCC(=O)O

What was measured:
[1] = target: T1, human β-FXIIa (HFXIIAB; Molecular Innovations) (human, UniProt P00748 354-362; P00748 373-615); assay: enzyme inhibition; TATA-cyclized
T1 chain 1: NGPLSCGQR
T1 chain 2: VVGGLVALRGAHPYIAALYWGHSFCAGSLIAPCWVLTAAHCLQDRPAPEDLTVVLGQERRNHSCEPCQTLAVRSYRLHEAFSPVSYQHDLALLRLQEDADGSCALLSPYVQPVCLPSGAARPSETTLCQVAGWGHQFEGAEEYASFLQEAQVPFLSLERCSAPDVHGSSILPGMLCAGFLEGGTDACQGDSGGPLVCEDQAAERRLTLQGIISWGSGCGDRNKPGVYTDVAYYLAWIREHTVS

[2] = target: T1, human β-FXIIa (HFXIIAB; Molecular …); assay: enzyme inhibition
[3] = target: T1, human β-FXIIa (HFXIIAB; Molecular …); assay: enzyme inhibition
[4] = target: T1, human β-FXIIa (HFXIIAB; Molecular …); assay: enzyme inhibition
[5] = target: T1, human β-FXIIa (HFXIIAB; Molecular …); assay: enzyme inhibition

B1: FXII514 (peptide)
chain: LCSRLPCEQLPCN
B1 gave a Ki [1] of 10200 nM.

B2: Pro6 Asparagine (19) (peptide)
chain: RCFRLNCRQLRCR
With B2 the Ki [2] was 264 nM.

B3: FXII608 (peptide)
chain: RCFRLPCAQLRCE
B3 was tested, and the Ki [3] was 44 nM.

B4: FXII607 (peptide)
chain: RCPRLPCAQLSCE
For B4, the Ki [3] was 985 nM.

B5: FXII617 (peptide)
chain: RCFRLPCAQLRCR
Binder B5 has a Ki [3] of 25 nM.

B6: FXII616 (peptide)
chain: RCFRLPCRQLRCA
B6 gave a Ki [3] of 31 nM.

B7: FXII614 (peptide)
chain: RCFRLPCRQLSCE
In the case of B7, the Ki [3] is reported as 39 nM.

B8: FXII613 (peptide)
chain: RCFRLPCSQLSCE
B8 gave a Ki [3] of 62 nM.

B9: peptide 82 (FXII618, Arg8 to β-alanine) (peptide)
peptide: RCFRLPC[βAla]QLRCR-NH2
modifications: linker 2-7-12 via TATA; not fully specified
B9 showed a Ki [4] of 755 nM.

B10: FXII515 (peptide)
chain: LCPRLSCHQLGCS
B10 was tested, and the Ki [1] was 2500 nM.

B11: Pro6 Aspartic acid (20) (peptide)
chain: RCFRLDCRQLRCR
B11 gave a Ki [2] of 307 nM.

B12: peptide 83 (FXII618, Arg8 to glycine) (peptide)
peptide: RCFRLPCGQLRCR-NH2
modifications: linker 2-7-12 via TATA; N-terminus assumed
SMILES: CC(C)C[C@@H]1NC(=O)[C@H](CCC(N)=O)NC(=O)CNC(=O)[C@@H]2CSCCC(=O)N3CN(CN(C3)C(=O)CCSC[C@H](NC(=O)[C@@H](N)CCCNC(=N)N)C(=O)N[C@@H](Cc3ccccc3)C(=O)N[C@@H](CCCNC(=N)N)C(=O)N[C@@H](CC(C)C)C(=O)N3CCC[C@H]3C(=O)N2)C(=O)CCSC[C@@H](C(=O)N[C@@H](CCCNC(=N)N)C(N)=O)NC(=O)[C@H](CCCNC(=N)N)NC1=O
B12 was tested, and the Ki [4] was 52 nM.

B13: peptide 18 (peptide 2, Pro6 to leucine) (peptide)
peptide: RCFRLLCRQLRCRW-NH2
modifications: linker 2-7-12 via TATA; N-terminus assumed
SMILES: CC(C)C[C@@H]1NC(=O)[C@H](CCC(N)=O)NC(=O)[C@H](CCCNC(=N)N)NC(=O)[C@@H]2CSCCC(=O)N3CN(CN(C3)C(=O)CCSC[C@H](NC(=O)[C@@H](N)CCCNC(=N)N)C(=O)N[C@@H](Cc3ccccc3)C(=O)N[C@@H](CCCNC(=N)N)C(=O)N[C@@H](CC(C)C)C(=O)N[C@@H](CC(C)C)C(=O)N2)C(=O)CCSC[C@@H](C(=O)N[C@@H](CCCNC(=N)N)C(=O)N[C@@H](Cc2c[nH]c3ccccc23)C(N)=O)NC(=O)[C@H](CCCNC(=N)N)NC1=O
With B13 the Ki [2] was 20 nM.

B14: FXII528 (peptide)
chain: ACWGAAQRCKVMQGECG
B14 gave a Ki [1] of 3700 nM.

B15: FXII615 (peptide)
chain: RCFRLPCWQLSCE
Work on B15 yielded a Ki [3] of 246 nM.

B16: peptide 4 (peptide 2, Phe3 to tyrosine) (peptide)
peptide: RCYRLPCRQLRCRW-NH2
modifications: linker 2-7-12 via TATA; N-terminus assumed
SMILES: CC(C)C[C@@H]1NC(=O)[C@H](CCC(N)=O)NC(=O)[C@H](CCCNC(=N)N)NC(=O)[C@@H]2CSCCC(=O)N3CN(CN(C3)C(=O)CCSC[C@H](NC(=O)[C@@H](N)CCCNC(=N)N)C(=O)N[C@@H](Cc3ccc(O)cc3)C(=O)N[C@@H](CCCNC(=N)N)C(=O)N[C@@H](CC(C)C)C(=O)N3CCC[C@H]3C(=O)N2)C(=O)CCSC[C@@H](C(=O)N[C@@H](CCCNC(=N)N)C(=O)N[C@@H](Cc2c[nH]c3ccccc23)C(N)=O)NC(=O)[C@H](CCCNC(=N)N)NC1=O
B16 showed a Ki [5] of 82 nM.

B17: FXII612 (peptide)
chain: RCFRLPCEQLSCE
B17 was tested, and the Ki [3] was 63 nM.

B18: FXII502 (peptide)
chain: RCWGACLNVCS
B18 showed a Ki [1] of 1200 nM.

B19: Gln9 Glutamic acid (23) (peptide)
chain: RCFRLPCRELRCR
With B19 the Ki [4] was greater than 10000 nM.

B20: FXII527 (peptide)
chain: ACWGAALSCNPQGSRCG
With B20 the Ki [1] was 8500 nM.

B21: FXII618 variant with P in position six replaced by S (peptide)
peptide: RCFRLSCRQLRCRW-NH2
modifications: linker 2-7-12 via TATA; N-terminus assumed
SMILES: CC(C)C[C@@H]1NC(=O)[C@H](CCC(N)=O)NC(=O)[C@H](CCCNC(=N)N)NC(=O)[C@@H]2CSCCC(=O)N3CN(CN(C3)C(=O)CCSC[C@H](NC(=O)[C@@H](N)CCCNC(=N)N)C(=O)N[C@@H](Cc3ccccc3)C(=O)N[C@@H](CCCNC(=N)N)C(=O)N[C@@H](CC(C)C)C(=O)N[C@@H](CO)C(=O)N2)C(=O)CCSC[C@@H](C(=O)N[C@@H](CCCNC(=N)N)C(=O)N[C@@H](Cc2c[nH]c3ccccc23)C(N)=O)NC(=O)[C@H](CCCNC(=N)N)NC1=O
Binder B21 has a Ki [2] of 75 nM.

B22: FXII504 (peptide)
chain: VCWGACLNVCP
B22 was tested, and the Ki [1] was 1900 nM.

B23: peptide 15 (peptide 2, Pro6 to alanine) (peptide)
peptide: RCFRLACRQLRCRW-NH2
modifications: linker 2-7-12 via TATA; N-terminus assumed
SMILES: CC(C)C[C@@H]1NC(=O)[C@H](CCCNC(=N)N)NC(=O)[C@H](Cc2ccccc2)NC(=O)[C@@H](NC(=O)[C@@H](N)CCCNC(=N)N)CSCCC(=O)N2CN3CN(C2)C(=O)CCSC[C@@H](C(=O)N[C@@H](CCCNC(=N)N)C(=O)N[C@@H](Cc2c[nH]c4ccccc24)C(N)=O)NC(=O)[C@H](CCCNC(=N)N)NC(=O)[C@H](CC(C)C)NC(=O)[C@H](CCC(N)=O)NC(=O)[C@H](CCCNC(=N)N)NC(=O)[C@H](CSCCC3=O)NC(=O)[C@H](C)NC1=O
B23 was tested, and the Ki [2] was 50 nM.

B24: Gln9 Asparagine (22) (peptide)
chain: RCFRLPCRNLRCR
B24 showed a Ki [4] of 2550 nM.

B25: FXII618 variant with F in position three replaced by 3-benzothienylalanine (peptide)
peptide: RC[Bta]RLPCRQLRCRW-NH2
modifications: linker 2-7-12 via TATA
B25 gave a Ki [5] of 23 nM.

B26: FXII609 (peptide)
chain: RCPRLPCAQLRCE
B26 showed a Ki [3] of 123 nM.

B27: FXII506 (peptide)
chain: ACWGACQNVCR
Work on B27 yielded a Ki [1] of 6300 nM.

B28: FXII610 (peptide)
chain: ACFRLPCAQLSCE
In the case of B28, the Ki [3] is reported as 231 nM.

B29: FXII509 (peptide)
chain: RCWYGCVPQCY
B29 gave a Ki [1] of 1000 nM.

B30: FXII513 (peptide)
chain: GCCYLRYLCS
B30 was tested, and the Ki [1] was 350 nM.

B31: peptide 5 (peptide 2, Phe3 to leucine) (peptide)
peptide: RCLRLPCRQLRCRW-NH2
modifications: linker 2-7-12 via TATA; N-terminus assumed
SMILES: CC(C)C[C@@H]1NC(=O)[C@H](CCC(N)=O)NC(=O)[C@H](CCCNC(=N)N)NC(=O)[C@@H]2CSCCC(=O)N3CN(CN(C3)C(=O)CCSC[C@H](NC(=O)[C@@H](N)CCCNC(=N)N)C(=O)N[C@@H](CC(C)C)C(=O)N[C@@H](CCCNC(=N)N)C(=O)N[C@@H](CC(C)C)C(=O)N3CCC[C@H]3C(=O)N2)C(=O)CCSC[C@@H](C(=O)N[C@@H](CCCNC(=N)N)C(=O)N[C@@H](Cc2c[nH]c3ccccc23)C(N)=O)NC(=O)[C@H](CCCNC(=N)N)NC1=O
For B31, the Ki [5] was 70 nM.

B32: FXII534 (peptide)
chain: ACWGAASACQQGGAKCG
B32 was tested, and the Ki [1] was 2400 nM.

B33: Gln9 Histidine (24) (peptide)
chain: RCFRLPCRHLRCR
B33 was tested, and the Ki [4] was greater than 10000 nM.

B34: peptide 21 (peptide 2, Gln9 to aspartate) (peptide)
peptide: RCFRLPCRDLRCRW-NH2
modifications: linker 2-7-12 via TATA; N-terminus assumed
SMILES: CC(C)C[C@@H]1NC(=O)[C@H](CC(=O)O)NC(=O)[C@H](CCCNC(=N)N)NC(=O)[C@@H]2CSCCC(=O)N3CN(CN(C3)C(=O)CCSC[C@H](NC(=O)[C@@H](N)CCCNC(=N)N)C(=O)N[C@@H](Cc3ccccc3)C(=O)N[C@@H](CCCNC(=N)N)C(=O)N[C@@H](CC(C)C)C(=O)N3CCC[C@H]3C(=O)N2)C(=O)CCSC[C@@H](C(=O)N[C@@H](CCCNC(=N)N)C(=O)N[C@@H](Cc2c[nH]c3ccccc23)C(N)=O)NC(=O)[C@H](CCCNC(=N)N)NC1=O
In the case of B34, the Ki [4] is reported as 1400 nM.

B35: Pro6 Valine (17) (peptide)
chain: RCFRLVCRQLRCR
Binder B35 has a Ki [2] of 119 nM.
